From PMC10214526 (2023)
Where no end group is shown, it is not given here.

B1: fluorescein-modified linear LIR^ATG3 peptide (peptide)
chain: LEAIIEEDDGDGGWVDTYH
modifications: also: fluorescein, position not given here
B2: fluorescein-modified truncated (103–111) LIR^ATG3 peptide (peptide)
peptide: GDGGWVDTY
modifications: also: fluorescein, position not given here
B3: fluorescein-modified cyclized LIR^ATG3 peptide (peptide)
chain: LEAIIEEDDGDGGWVDTYHCGGGK
modifications: also: fluorescein, position not given here, cyclized, places not given here

Experiments:
GABARAP = GABARAP (UniProt O95166 2-116); assay: FP
GABARAP, sequence (O95166 2-116): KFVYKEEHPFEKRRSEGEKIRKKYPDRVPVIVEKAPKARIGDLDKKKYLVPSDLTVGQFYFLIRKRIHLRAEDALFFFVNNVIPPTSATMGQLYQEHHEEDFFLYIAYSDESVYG

LC3A = LC3A (UniProt Q9H492 1-121); assay: FP

| Binder | Kd (GABARAP) | Kd (LC3A) |
| --- | --- | --- |
| B1 | 1.2 µM | 2.6 µM |
| B2 | > 10 µM | > 15 µM |
| B3 | 0.15 µM | 0.41 µM |
